Biological target: T1, His-SUMO-FREE1 (Arabidopsis thaliana, UniProt Q9ASS2 1-601)
T1 construct: FREE1 (FYVE1), Arabidopsis thaliana, locus AT1G20110; also called Sumo-tagged FREE1; not shown: His, N-terminal, kept; SUMO, N-terminal, kept
T1 sequence (looked up): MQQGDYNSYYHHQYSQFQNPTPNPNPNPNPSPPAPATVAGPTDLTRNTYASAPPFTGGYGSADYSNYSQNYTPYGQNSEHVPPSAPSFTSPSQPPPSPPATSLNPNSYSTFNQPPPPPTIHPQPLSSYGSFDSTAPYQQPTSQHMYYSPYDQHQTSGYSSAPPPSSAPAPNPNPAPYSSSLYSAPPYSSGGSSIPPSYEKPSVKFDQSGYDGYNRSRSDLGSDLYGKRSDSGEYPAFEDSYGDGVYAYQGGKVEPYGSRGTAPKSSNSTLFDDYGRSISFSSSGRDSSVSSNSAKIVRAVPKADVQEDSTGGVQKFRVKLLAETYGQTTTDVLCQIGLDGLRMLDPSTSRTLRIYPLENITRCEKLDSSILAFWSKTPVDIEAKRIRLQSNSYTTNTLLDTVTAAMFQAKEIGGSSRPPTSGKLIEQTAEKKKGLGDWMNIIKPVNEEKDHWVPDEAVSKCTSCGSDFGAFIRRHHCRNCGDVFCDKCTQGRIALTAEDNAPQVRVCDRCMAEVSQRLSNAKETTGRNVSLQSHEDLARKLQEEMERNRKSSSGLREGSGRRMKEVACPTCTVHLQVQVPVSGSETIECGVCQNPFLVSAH
Experiment: pull-down; competition: in vitro binding assay on amylose resin bound with MBP-Vps23A (or the Vps23A CC domain as bait) with a constant amount of one His-SUMO protein (30 pmol BRAF) and 10, 30, 100 or 300 pmol of the competing His-SUMO protein; immunoblot, quantified
Conditions: both partners purified

B1: MBP-Vps23A (natural protein, Arabidopsis thaliana, UniProt Q9LHG8 1-398, looked up)
chain: MVPPPSNPQQVQQFLSSALSQRGPSSVPYEESNKWLIRQHLLNLISSYPSLEPKTASFMHNDGRSVNLLQADGTIPMPFHGVTYNIPVIIWLLESYPRHPPCVYVNPTADMIIKRPHAHVTPSGLVSLPYLQNWVYPSSNLVDLVSDLSAAFARDPPLYSRRRPQPPPPSPPTVYDSSLSRPPSADQSLPRPFPPSPYGGGVSRVQVQHVHHQQQSDDAAEVFKRNAINKMVEMVHSDLVSMRRAREAEAEELLSLQAGLKRREDELNIGLKEMVEEKETLEQQLQIISMNTDILDSWVRENQGKTKNLVDLDVDNAFECGDTLSKQMLECTALDLAIEDAIYSLDKSFQDGVVPFDQYLRNVRLLSREQFFHRATGSKVRAAQMEVQVAAIAGRLHS
notes: Vps23A/ELC, Arabidopsis thaliana, locus AT3G12400; Vector: in-house pRHisMBP; it may also add a His tag; source: E. coli BL21(DE3) pLysS, purified (amylose resin); not shown: MBP, N-terminal, kept
  binding result: binds

Reference: PMC6141507, “A plant Bro1 domain protein BRAF regulates multivesicular body biogenesis and membrane protein homeostasis” (Nature Communications, 2018)
